Experimental data reported in paper doi:10.1101/2025.05.09.649859.

Key:
Conditions in all cases: 25 mM Tris-HCl pH 7.5, 2 mM MgCl2, 100 mM KCl (FP, 21 C) or 100-400 mM KCl (BLI, IgG on Protein A, 25 C)
J2 IgG [1] = assay: fluorescence polarization
J2 IgG [2] = assay: BLI
J2 IgG HC Y54F = assay: BLI
J2 IgG HC Y52F = assay: BLI
J2 IgG HC Y54A = assay: BLI
J2 IgG HC A30P = assay: BLI
J2 IgG LC Y38F = assay: BLI
J2 IgG HC Y50F = assay: BLI
J2 IgG LC Y31F = assay: BLI
J2 IgG LC Y31A = assay: BLI
J2 IgG [3] = assay: competition FP

Sequence: GGCAAGGGUAUCAUGGCGGACGACCGGGGUUCGAACCCCGGAUCCGGCCGUCCGCCGUGAUCCAUGCGGUUACCGCCCGCGUGUCGAACCCAGGUGUGCC [VA-I RNA]
- Kd (J2 IgG [1]): 32 nM

Sequence: GUUGUAAAGAAGGU / ACCUUCUUUACAAC [14-bp dsRNA]
- Kd (J2 IgG [2]): 2100 nM

Sequence: GUUGUAAAGAAGGUCAAUAU / AUAUUGACCUUCUUUACAAC [20-bp dsRNA]
- Kd (J2 IgG HC Y54F): 710 nM
- Kd (J2 IgG HC Y52F): 220 nM
- Kd (J2 IgG HC Y54A): 300 nM
- Kd (J2 IgG HC A30P): 120 nM
- Kd (J2 IgG LC Y38F): 150 nM
- Kd (J2 IgG HC Y50F): 430 nM
- Kd (J2 IgG [2]): 120 nM
- Kd (J2 IgG LC Y31F): 360 nM
- Kd (J2 IgG LC Y31A): 940 nM

Sequence: GUUGUAAAGAAGGUCAAUAUUGUACCAAAC / GUUUGGUACAAUAUUGACCUUCUUUACAAC [30-bp dsRNA]
- Kd (J2 IgG [2]): 12 nM

Sequence: GUUGUAAAGAAGGUCAAUAUUGUACCAAACUUGAUGGAAA / UUUCCAUCAAGUUUGGUACAAUAUUGACCUUCUUUACAAC [40-bp dsRNA]
- Kd (J2 IgG [2]): 80 nM

Sequence: GUUGUAAAGAAGGUCAAUAUUGUACCAAACUUGAUGGAAAAGAACAACGU / ACGUUGUUCUUUUCCAUCAAGUUUGGUACAAUAUUGACCUUCUUUACAAC [50-bp dsRNA]
- IC50 (J2 IgG [3]): 17 nM
- Kd (J2 IgG [2]): 22 nM
